Experiments:
human CNTN4-rabbit Fc = molecular target: T1, human CNTN4-rabbit Fc (human; rabbit, UniProt Q8IWV2 19-1000, limits assumed); assay: ELISA, plate coated with antigen-rabbit Fc, anti-human IgG Fc-HRP
T1 construct: not shown: rabbit Fc
T1 sequence (looked up): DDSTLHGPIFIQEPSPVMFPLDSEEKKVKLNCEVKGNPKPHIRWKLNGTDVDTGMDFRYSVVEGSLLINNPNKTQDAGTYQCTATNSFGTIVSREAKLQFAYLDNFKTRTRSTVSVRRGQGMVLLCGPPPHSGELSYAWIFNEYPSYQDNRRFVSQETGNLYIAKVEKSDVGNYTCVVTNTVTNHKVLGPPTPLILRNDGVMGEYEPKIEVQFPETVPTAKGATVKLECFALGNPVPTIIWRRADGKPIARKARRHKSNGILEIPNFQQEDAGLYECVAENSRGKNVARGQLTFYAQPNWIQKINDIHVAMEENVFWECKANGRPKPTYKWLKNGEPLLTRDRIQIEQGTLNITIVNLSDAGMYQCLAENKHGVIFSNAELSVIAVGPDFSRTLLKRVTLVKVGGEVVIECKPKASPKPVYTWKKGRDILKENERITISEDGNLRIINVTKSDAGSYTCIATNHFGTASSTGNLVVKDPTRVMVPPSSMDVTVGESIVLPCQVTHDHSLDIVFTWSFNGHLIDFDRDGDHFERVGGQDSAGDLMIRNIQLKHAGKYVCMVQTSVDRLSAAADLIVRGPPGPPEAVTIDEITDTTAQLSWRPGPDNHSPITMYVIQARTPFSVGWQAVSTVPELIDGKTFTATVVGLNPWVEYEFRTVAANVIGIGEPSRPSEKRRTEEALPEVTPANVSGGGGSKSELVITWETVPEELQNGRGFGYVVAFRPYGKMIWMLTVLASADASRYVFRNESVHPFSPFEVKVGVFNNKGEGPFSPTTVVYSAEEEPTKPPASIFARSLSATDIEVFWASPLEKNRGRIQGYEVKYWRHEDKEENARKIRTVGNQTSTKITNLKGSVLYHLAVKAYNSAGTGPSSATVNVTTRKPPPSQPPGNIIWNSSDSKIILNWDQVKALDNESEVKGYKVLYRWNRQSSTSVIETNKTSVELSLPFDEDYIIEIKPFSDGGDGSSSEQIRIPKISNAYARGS
Method: (§1) An ELISA tests were performed on a total of 25 scFv-hCks and a total of 27 IgGs for which the expression was confirmed in Example 1.2. An ELISA plate was coated with 200 ng of antigens (human CNTN4-rabbit Fc or mouse CNTN4-rabbit Fc). 200 ng of a negative control (human antigen-rabbit Fc) for a tagging protein was used. For antibody binding, anti-CNTN4 scFv-hCk was serially diluted from a maximum of 1 μM to 0.001 nM by 1/10×each, and anti-CNTN4 IgG was serially diluted from a maximum of 10 nM to 0.00001 nM by 1/10×each, thereby binding to the antigen. Anti-human kappa-HRP or anti-human IgG Fc-HRP was used as the secondary antibody for antibody detection. Color was developed using ABTS, which is a color developing reagent, and the absorbance at 405 nm was measured.

mouse CNTN4-rabbit Fc = molecular target: T2, mouse CNTN4-rabbit Fc (mouse; rabbit, UniProt Q69Z26 19-1000, limits assumed); assay: as above
T2 construct: not shown: rabbit Fc
T2 sequence (looked up): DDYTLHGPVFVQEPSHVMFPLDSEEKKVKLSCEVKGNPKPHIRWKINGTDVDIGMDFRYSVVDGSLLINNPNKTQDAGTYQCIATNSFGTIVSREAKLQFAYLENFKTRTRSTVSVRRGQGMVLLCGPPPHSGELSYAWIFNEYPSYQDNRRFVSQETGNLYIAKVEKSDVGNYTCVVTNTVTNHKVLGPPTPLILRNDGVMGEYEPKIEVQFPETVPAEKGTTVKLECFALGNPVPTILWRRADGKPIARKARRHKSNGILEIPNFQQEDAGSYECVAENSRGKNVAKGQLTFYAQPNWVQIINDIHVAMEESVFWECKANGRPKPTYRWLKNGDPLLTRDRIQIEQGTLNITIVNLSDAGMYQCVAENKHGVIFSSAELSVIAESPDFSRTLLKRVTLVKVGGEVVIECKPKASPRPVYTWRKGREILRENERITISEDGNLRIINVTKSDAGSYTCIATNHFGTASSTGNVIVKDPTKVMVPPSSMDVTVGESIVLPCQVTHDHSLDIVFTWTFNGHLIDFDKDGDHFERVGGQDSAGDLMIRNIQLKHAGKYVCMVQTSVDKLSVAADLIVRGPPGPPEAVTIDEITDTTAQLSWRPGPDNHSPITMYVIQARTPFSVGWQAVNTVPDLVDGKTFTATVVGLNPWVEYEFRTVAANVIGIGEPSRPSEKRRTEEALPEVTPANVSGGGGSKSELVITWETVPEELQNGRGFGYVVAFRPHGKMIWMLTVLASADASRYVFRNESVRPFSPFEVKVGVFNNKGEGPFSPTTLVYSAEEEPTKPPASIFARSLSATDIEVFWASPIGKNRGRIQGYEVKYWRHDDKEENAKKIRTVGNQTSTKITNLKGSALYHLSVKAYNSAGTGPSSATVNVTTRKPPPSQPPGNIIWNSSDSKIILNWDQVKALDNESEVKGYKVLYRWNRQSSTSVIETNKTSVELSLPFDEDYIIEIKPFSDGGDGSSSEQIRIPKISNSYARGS
Method: as §1

[1] = molecular target: T3, human CNTN4 antigen expressed on the cell membrane of 293FT cells (human, UniProt Q8IWV2 19-1000); assay: FACS, 293FT cells transfected with human CNTN4, 40 ug/mL, anti-hFc-PE
T3 construct: whole, on cells; also called Human CNTN4 transfected cell
T3 sequence (looked up): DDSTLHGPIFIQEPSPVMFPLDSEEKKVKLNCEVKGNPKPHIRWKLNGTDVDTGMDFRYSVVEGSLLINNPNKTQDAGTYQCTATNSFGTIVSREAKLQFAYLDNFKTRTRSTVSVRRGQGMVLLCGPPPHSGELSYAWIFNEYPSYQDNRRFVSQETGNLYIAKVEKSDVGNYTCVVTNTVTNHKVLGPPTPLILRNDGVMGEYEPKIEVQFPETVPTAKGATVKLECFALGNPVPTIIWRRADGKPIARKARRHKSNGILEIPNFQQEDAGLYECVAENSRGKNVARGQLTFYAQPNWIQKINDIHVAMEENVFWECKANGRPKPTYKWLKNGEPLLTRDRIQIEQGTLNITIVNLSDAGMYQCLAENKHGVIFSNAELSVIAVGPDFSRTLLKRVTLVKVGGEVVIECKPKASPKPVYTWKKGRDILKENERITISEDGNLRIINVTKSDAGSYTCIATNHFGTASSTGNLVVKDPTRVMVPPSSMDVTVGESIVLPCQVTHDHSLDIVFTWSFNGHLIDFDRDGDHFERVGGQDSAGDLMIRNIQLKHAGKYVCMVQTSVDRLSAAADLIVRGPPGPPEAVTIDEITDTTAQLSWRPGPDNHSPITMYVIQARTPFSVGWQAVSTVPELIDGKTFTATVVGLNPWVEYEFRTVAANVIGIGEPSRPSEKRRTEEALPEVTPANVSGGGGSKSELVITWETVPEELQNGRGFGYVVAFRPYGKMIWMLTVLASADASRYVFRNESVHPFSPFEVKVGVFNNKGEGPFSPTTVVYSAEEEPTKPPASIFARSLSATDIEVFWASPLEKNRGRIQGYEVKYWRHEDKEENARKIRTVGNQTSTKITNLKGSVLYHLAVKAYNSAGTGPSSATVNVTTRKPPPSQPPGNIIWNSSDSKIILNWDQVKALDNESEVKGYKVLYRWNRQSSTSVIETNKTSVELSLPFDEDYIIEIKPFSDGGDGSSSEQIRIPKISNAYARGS

B1: anti-CNTN4 IgG A13WB2 (antibody, V domains shown)
VH: AVTLDESGGGLHTPGGALSLVCKASGFTFSSYGMAWVRQAPGKGLEWVAGITSSGSSAGYGPAVKGRATISRDNGQSTVRLQLNNLRAEDTATYYCAKDGYIYSGADSDSIDAWGHGTEVIVSS
VL: ALTQPSSVSANLGGTVEITCSGGYSGYGWYQQKSPGSAPVTLIYYNDKRPSDIPSRFSGSKSGSTGTLTITGVQAEDEAVYFCGSRDSSTYVDIFGAGTTLTVL
notes: human IgG4 (S228P)
An EC50 (human CNTN4-rabbit Fc) of 10 pM, an EC50 (mouse CNTN4-rabbit Fc) of 10 pM and a Shift % [1] of 86.6% were found for B1 in this work.

B2: anti-CNTN4 IgG A35SF8 (antibody, V domains shown)
VH: AVTLDESGGGLHTPGGALSLVCKASGFTFSSYGMAWVRQAPGKGLEWVAGITSSGSSAGYGPAVKGRATISRDNGQSTVRLQLNNLRAEDTATYYCAKDGYIYSGADSDSIDAWGHGTEVIVSS
VL: ALTQPSSVSANLGGTVKITCSGGGGSYGWFQQKSPGSAPVTLIYNNNNRPSDIPSRFSGSKSGSTATLTITGVQAEDEAVYFCGGYDDSTYVGMFGAGTTLTVL
notes: human IgG4 (S228P)
An EC50 (human CNTN4-rabbit Fc) of 10 pM, an EC50 (mouse CNTN4-rabbit Fc) of 20 pM and a Shift % [1] of 80.4% were found for B2 in this work.

B3: anti-CNTN4 IgG A13WB24 (antibody, V domains shown)
VH: AVTLDESGGGLHTPGGALSLVCKASGFTFSSYGMAWVRQAPGKGLEWVAGITSSGSSAGYGPAVKGRATISRDNGQSTVRLQLNNLRAEDTATYYCAKDGYIYSGADSDSIDAWGHGTEVIVSS
VL: ALTQPSSVSANPGGTVEITCSGGGNNNYGWYQQKSPGSAPVTLIYYNDNRPSDIPSRFSGSKSGSTATLTITGVQAEDEAVYYCGGYDISYVDIFGAGTTLTVL
notes: human IgG4 (S228P)
An EC50 (human CNTN4-rabbit Fc) of 10 pM, an EC50 (mouse CNTN4-rabbit Fc) of 10 pM and a Shift % [1] of 85.1% were found for B3 in this work.

B4: anti-CNTN4 IgG A13WB7 (antibody, V domains shown)
VH: AVTLDESGGGLHTPGGALSLVCKASGFTFSSYGMAWVRQAPGKGLEWVAGITSSGSSAGYGPAVKGRATISRDNGQSTVRLQLNNLRAEDTATYYCAKDGYIYSGADSDSIDAWGHGTEVIVSS
VL: ALTQPSSVSANPGETVKITCSGGGSSSYYNYGWYQQKSPGSAPVTVIYYNDKRPSDIPSRFSGSKSGSTGTLTITGVQAEDEAVYYCGSWDSSTYSDIFGAGTTLTVL
notes: human IgG4 (S228P)
An EC50 (human CNTN4-rabbit Fc) of 10 pM, an EC50 (mouse CNTN4-rabbit Fc) of 10 pM and a Shift % [1] of 86.4% were found for B4 in this work.

B5: anti-CNTN4 IgG A13WB4 (antibody, V domains shown)
VH: AVTLDESGGGLHTPGGALSLVCKASGFTFSSYGMAWVRQAPGKGLEWVAGITSSGSSAGYGPAVKGRATISRDNGQSTVRLQLNNLRAEDTATYYCAKDGYIYSGADSDSIDAWGHGTEVIVSS
VL: ALTQPSSVSANPGETVEITCSGGSSDYGYGWYQQKSPGSAPVTVIYYNNNRPSDIPSRFSGSLSGSTNTLTITGVQADDEAVYFCGSRDSSSGYVDIFGAGTTLTVL
notes: human IgG4 (S228P)
An EC50 (human CNTN4-rabbit Fc) of 10 pM, an EC50 (mouse CNTN4-rabbit Fc) of 10 pM and a Shift % [1] of 84.7% were found for B5 in this work.

B6: anti-CNTN4 IgG A13SF21 (antibody, V domains shown)
VH: AVTLDESGGGLHTPGGALSLVCKASGFTFSSYGMAWVRQAPGKGLEWVAGITSSGSSAGYGPAVKGRATISRDNGQSTVRLQLNNLRAEDTATYYCAKDGYIYSGADSDSIDAWGHGTEVIVSS
VL: ALTQPSSVSANLGGTVEITCSGSSGSYGWYQQKAPGSAPVTVIYNNNNRPSGIPSRFSGALSGSTATLTITGVQAEDEAVYFCGGYDSSTYVGIFGAGTTLTVL
notes: human IgG4 (S228P)
An EC50 (human CNTN4-rabbit Fc) of 10 pM, an EC50 (mouse CNTN4-rabbit Fc) of 10 pM and a Shift % [1] of 80.4% were found for B6 in this work.

B7: anti-CNTN4 IgG A13SF1 (antibody, V domains shown)
VH: AVTLDESGGGLQTPGGGLSLVCKASGFTFSSYGMAWVRQAPGKGLEWVAGITSSGSSAGYGPAVKGRATISRDNGQSTVRLQLNNLRAEDTATYYCAKDGYIYSGADSDSIDAWGHGTEVIVSS
VL: ALTQPSSVSANLGGTVKITCSGGGGSYGWFQQKSPGSAPVTLIYNNNNRPSDIPSRFSGSKSGSTATLTITGVQAEDEAVYFCGGYDSSTYVGTFGAGTTLTVL
notes: human IgG4 (S228P)
An EC50 (human CNTN4-rabbit Fc) of 10 pM, an EC50 (mouse CNTN4-rabbit Fc) of 20 pM and a Shift % [1] of 83.8% were found for B7 in this work.

B8: anti-CNTN4 IgG A13SF16 (antibody, V domains shown)
VH: AVTLDESGGGLQTPGGGLSLVCKASGFTFSSYGMAWVRQAPGKGLEWVAGITSSGSSAGYGPAVKGRATISRDNGQSTVRLQLNNLRAEDTATYYCAKDGYIYSGADSDSIDAWGHGTEVIVSS
VL: ALTQPSSVSANLGGTVKITCSGSGGSYGWFQQKSPGSAPVTLIYNNDNRPSDIPSRFSGSKSGSTATLTITGVQAEDEAVYFCGGYDSSTYVDTFGAGTTLTVL
notes: human IgG4 (S228P)
An EC50 (human CNTN4-rabbit Fc) of 10 pM, an EC50 (mouse CNTN4-rabbit Fc) of 10 pM and a Shift % [1] of 84.8% were found for B8 in this work.
